Assay results taken from article PMC4585773, “The C-terminus hot spot region helps in the fibril formation of bacteriophage-associated hyaluronate lyase (HylP2)” (Scientific Reports, 2015).

Legend:
[1] = target: the molecule itself; assay: thioflavin T fluorescence kinetics; pH 5, 5 uM protein, 10 uM ThT, emission at 480 nm against time, seeded with preformed HylP2 fibrils; step: the native enzyme to fibrils
[2] = target: the molecule itself; assay: SEC; Superdex 200 HR 10/300, 25 °C, pH 5, 0.3 ml/min; step: the native enzyme to high molecular weight aggregates (void volume), compared with pH 7; no seeds

Row | Protein | binding result [1] | binding result [2]
1 | HylP_(M179V,M181V) (enzyme, Streptococcus pyogenes bacteriophage, UniProt P15316 1-371, looked up, hyaluronate lyase HylP of a Streptococcus pyogenes bacteriophage, residues 1-371, with M179V and M181V; made from the vector construct of full length HylP; Generated from the vector construct of m2; also called hot spot double mutant of HylP; source: E. coli BL21 (DE3), purified) MTENIPLRVQFKRMSADEWARSDVILLEGEIGFETDTGFAKFGDGQNTFSKLKYLTGPKGPKGDTGLQGKTGGTGPRGPAGKPGTTDYDQLQNKPDLGAFAQKEETNSKITKLESSKADKSAVYSKAESKIELDKKLSLTGGIVTGQLQFKPNKSGIKPSSSVGGAINIDMSKSEGAAVVVYTNKDTTDGPLMILRSDKDTFDQSAQFVDYSGKTNAVNIVMRQPSAPNFSSALNITSANEGGSAMQIRGVEKALGTLKITHENPNVEAKYDENAAALSIDIVKKQKGGKGTAAQGIYINSTSGTAGKMLRIRNKNEDKFYVGPDGGFHSGANSTVAGNLTVKDPTSGKHAATKDYVDEKIAELKKLILKK | binds | 
2 | bacteriophage-associated hyaluronate lyase HylP2 (enzyme, Streptococcus pyogenes bacteriophage, UniProt Q54699 1-337, looked up, hyaluronate lyase HylP2 encoded by a Streptococcus pyogenes bacteriophage, full length, residues 1-337; also called HylP2_(1-337); phage hyaluronate lyase; source: E. coli BL21 (DE3), purified) MSENIPLRVQFKRMKAAEWARSDVILLESEIGFETDTGFARAGDGHNRFSDLGYISPLDYNLLTNKPNIDGLATKVETAQKLQQKADKETVYTKAESKQELDKKLNLKGGVMTGQLKFKPAATVAYSSSTGGAVNIDLSSTRGAGVVVYSDNDTSDGPLMSLRTGKETFNQSALFVDYKGTTNAVNIAMRHATTPNFSSALNITSGNENGSAMQLRGSEKALGTLKITHENPSIGADYDKNAARYPLILSKRQNGAGTAAQGIYINSTSGTTGKLLRIRNLSDDKFYVKSDGGFYAKETSQIDGNLKLKDPTANDHAATKAYVDKAISELKKLILKK |  | binds
